Experimental data as given in publication PMC12810643.

Target: endogenously expressed Gαi (human (endogenous in HEK293)) (UniProt P63096)
Test: linear dichroism

Chain of UniProt P63096 (P63096 whole entry): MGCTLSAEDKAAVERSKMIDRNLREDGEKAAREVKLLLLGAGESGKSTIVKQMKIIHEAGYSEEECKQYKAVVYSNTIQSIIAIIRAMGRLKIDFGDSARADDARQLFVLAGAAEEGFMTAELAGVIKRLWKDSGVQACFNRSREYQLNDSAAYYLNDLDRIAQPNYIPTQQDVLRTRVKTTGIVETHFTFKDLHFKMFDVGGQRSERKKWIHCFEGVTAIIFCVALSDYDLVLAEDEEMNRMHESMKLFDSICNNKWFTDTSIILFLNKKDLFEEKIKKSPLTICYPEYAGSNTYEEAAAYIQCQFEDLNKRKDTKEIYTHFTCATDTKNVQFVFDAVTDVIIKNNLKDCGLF

percent of the FLIP molecules bound | Substance
15% | KB1753-cpmTurq2-HRas
15% | KB1753-eGFP-HRas
